From article PMC4110284

Columns and labels:
[1] = target: mutant IgG4 with Pro222 (human); assay: AUC; sedimentation velocity, 40,000 rpm, SEDFIT c(s) analysis with integration of the monomer and dimer peaks; IgG4(Ser222) 0.5-8 mg/ml in PBS-50, PBS-137 and PBS-250 in H2O at 20 °C and in PBS-137 in 2H2O at 6, 20 and 30 °C; IgG4(Pro222) 0.5-2.5 mg/ml in PBS-137 in H2O at 20 °C; pH 7.4; dimer to monomers
[2] = target: wild-type human-mouse chimera IgG4 B72.3 with Ser222 (human); assay: as above

Molecule	percent dimer [1] [%]	stoichiometry N [1]	Kd [2] [µM]	percent dimer [2] [%]	stoichiometry N [2]
mutant IgG4 with Pro222 (antibody)	2 to 3	2	–	–	–
wild-type human-mouse chimera IgG4 B72.3 with Ser222 (antibody, V domains shown) VH: QVQLQQSDAELVKPGASVKISCKASGYTFTDHAIHWAKQKPEQGLEWIGYISPGNDDIKYNEKFKGKATLTADKSSSTAYMQLNSLTSEDSAVYFCKRSYYGHWGQGTTLTVSS VL: DIQMTQSPASLSVSVGETVTITCRASENIYSNLAWYQQKQGKSPQLLVYAATNLADGVPSRFSGSGSGTQYSLKINSLQSEDFGSYYCQHFWGTPYTFGGGTRLEIK	–	–	600 to 3000	1 to 3	2
